Earlier results as cited in patent publication US5093322A, “Tick-derived amblyommin and method of antithrombin therapy” (Hoechst Aktiengesellschaft, priority 1988, dated 1992).

Assays:
[1] = in vivo
[2] = tested on: thrombin

## hirudin
[1]
  half-life: relatively short half-life
[2]
  thrombin inhibition, specificity: highly specific thrombin inhibitor
